The record followed here is article PMC11023060.

This data set deals with T1, CbAgoM (delA2;D463R;Y473A;K477C;T491H;T494S;K520G;A542D;A612D;del738-749).
T1 chain: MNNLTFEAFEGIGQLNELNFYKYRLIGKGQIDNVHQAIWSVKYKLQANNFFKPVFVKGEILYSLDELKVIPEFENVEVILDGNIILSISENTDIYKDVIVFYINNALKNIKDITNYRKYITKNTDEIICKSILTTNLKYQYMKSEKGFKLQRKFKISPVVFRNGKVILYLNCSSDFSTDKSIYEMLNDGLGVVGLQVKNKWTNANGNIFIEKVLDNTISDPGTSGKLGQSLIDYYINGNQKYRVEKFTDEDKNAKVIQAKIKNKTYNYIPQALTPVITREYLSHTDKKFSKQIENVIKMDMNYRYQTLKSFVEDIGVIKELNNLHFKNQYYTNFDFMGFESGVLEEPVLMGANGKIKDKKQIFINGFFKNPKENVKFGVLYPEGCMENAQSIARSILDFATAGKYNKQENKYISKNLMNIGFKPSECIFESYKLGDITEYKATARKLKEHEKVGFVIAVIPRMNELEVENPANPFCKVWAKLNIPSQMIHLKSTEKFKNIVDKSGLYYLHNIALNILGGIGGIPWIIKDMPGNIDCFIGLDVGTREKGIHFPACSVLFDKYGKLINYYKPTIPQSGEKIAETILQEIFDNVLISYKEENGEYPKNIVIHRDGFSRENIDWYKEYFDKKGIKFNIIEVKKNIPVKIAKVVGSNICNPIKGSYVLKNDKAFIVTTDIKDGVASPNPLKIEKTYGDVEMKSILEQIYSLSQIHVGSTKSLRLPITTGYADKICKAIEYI
In words: fluorescence polarization.

In the case of TGAGGTAGTAGGTTGTATAGT (ssDNA, 5'-phosphate) [gDNA 21 nt], the binding result is on record as “binds”.
